Reference: article PMC13121748, “Phase separation of PGL-3 driven by structured domains that oligomerize and interact with RGG motifs” (EMBO Reports, 2025)
Values joined by “and” are separate entries in the source; they are usually repeats but may differ in a detail not shown here. Identical values can stand only once.

What was measured:
PGL-3(D1) [1] = molecular target: T1, PGL-3(D1) (C. elegans, trace-labelled with DyLight 488 (NHS ester) in the FA crosslinking; biotinylated with NHS-PEG12-Biotin when immobilised in BLI); assay: BLI; biotinylated D1 on streptavidin tips, RGG peptide in solution; 125 mM NaCl, 0.01 mg/ml BSA, 0.02% Tween-20, 25 mM HEPES pH 7.5; 1:1 binding model; Octet Red96
T1 chain: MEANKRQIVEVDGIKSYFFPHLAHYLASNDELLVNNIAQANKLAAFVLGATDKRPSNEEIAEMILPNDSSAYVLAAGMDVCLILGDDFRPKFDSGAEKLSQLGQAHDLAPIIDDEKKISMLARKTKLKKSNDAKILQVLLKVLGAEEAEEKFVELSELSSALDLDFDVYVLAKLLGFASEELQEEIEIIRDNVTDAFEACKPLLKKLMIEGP

[2] = molecular target: PGL-3(D1-D2) (C. elegans) (UniProt G5EBV6)
PGL-3(D1) [3] = molecular target: T1, PGL-3(D1); assay: BLI
[4] = molecular target: PGL-3(D1-D2) (C. elegans) (UniProt G5EBV6); remark: listed apart in the source
[5] = molecular target: PGL-3(D1-D2) (C. elegans) (UniProt G5EBV6); remark: listed apart in the source
[6] = molecular target: T2, PGL-3 RGG region peptide (native) (Caenorhabditis elegans, UniProt G5EBV6 623-693); assay: BLI; RNA on tip, RGG peptide in solution; 1:1 fit; KD ~2-fold higher than RGG:D1, value not given; BLI: 25 mM HEPES pH 7.5, 125 mM NaCl, 0.01 mg/ml BSA, 0.02% Tween-20, temperature not stated; condensate assays at 125 mM NaCl; details: tags: none; unlabeled in BLI; label: 5' biotin; single strand
T2 sequence: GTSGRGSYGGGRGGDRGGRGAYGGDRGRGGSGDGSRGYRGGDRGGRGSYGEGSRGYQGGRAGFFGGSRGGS

[7] = molecular target: the molecule itself; assay: mass photometry; unlabeled D1-D2 at 50 to 100 nM in 125 mM NaCl, 25 mM HEPES pH 7.5, TwoMP (Refeyn)
[8] = molecular target: the molecule itself; assay: cross-linking; XL-MS: 7.5 uM full-length PGL-3, 2 mM DSBU, 1 h room temperature, 25 mM HEPES pH 7.5, 125 mM NaCl (condensing) or 500 mM NaCl (non-condensing); trypsin digest, LC-MS/MS, Scout search

B1: PGL-3(RGG) synthetic peptide spanning the RGG region (peptide)
chain: GTSGRGSYGGGRGGDRGGRGAYGGDRGRGGSGDGSRGYRGGDRGGRGSYGEGSRGYQGGRAGFFGGSRGGS
modifications: trace-labelled with Alexa Fluor 647 (NHS ester) in the FA crosslinking and partitioning; biotinylated with NHS-PEG12-Biotin when immobilised in BLI
fold faster koff than RGG:poly(U) RNA (PGL-3(D1) [1]): 10 fold
fold faster kon than RGG:poly(U) RNA (PGL-3(D1) [1]): 20 fold
fold lower KD than RGG:poly(U) RNA (PGL-3(D1) [1]): 2 fold
fraction of D1-D2 in the pellet (dense phase) with equimolar RGG peptide against buffer control [2]: 15%
Kd (PGL-3(D1) [3]): 1630 nM
viscosity of D1-D2 condensates formed with equimolar RGG peptide against buffer (embedded beads) [4]: 1.25 fold
partition coefficient of the RGG peptide in D1-D2 condensates (5 uM each, in trans) [5]: 1.3

B2: poly(U) 30-nt RNA (ssRNA)
RNA: UUUUUUUUUUUUUUUUUUUUUUUUUUUUUU
binding result [6]: binds

B3: PGL-3(D1-D2) (domain or fragment, C. elegans, UniProt G5EBV6 1-447, looked up)
chain: MEANKRQIVEVDGIKSYFFPHLAHYLASNDELLVNNIAQANKLAAFVLGATDKRPSNEEIAEMILPNDSSAYVLAAGMDVCLILGDDFRPKFDSGAEKLSQLGQAHDLAPIIDDEKKISMLARKTKLKKSNDAKILQVLLKVLGAEEAEEKFVELSELSSALDLDFDVYVLAKLLGFASEELQEEIEIIRDNVTDAFEACKPLLKKLMIEGPKIDSVDPFTQLLLTPQEESIEKAVSHIVARFEEASAVEDDESLVLKSQLGYQLIFLVVRSLADGKRDASRTIQSLMPSSVRAEVFPGLQRSVFKSAVFLASHIIQVFLGSMKSFEDWAFVGLAEDLESTWRRRAIAELLKKFRISVLEQCFSQPIPLLPQSELNNETVIENVNNALQFALWITEFYGSESEKKSLNQLQFLSPKSKNLLVDSFKKFAQGLDSKDHVNRIIESLEK
modifications: unlabeled in mass photometry; trace-labelled with DyLight 488 (partitioning) or Alexa Fluor 647 (pelleting) by NHS ester
notes: PGL-3, C. elegans, the first 447 amino acids, which span the folded domains D1 and D2; also called D1-D2 domain; not shown: 6xHis-MBP-6xHis, N-terminal, cleaved
stoichiometry N [7]: 2 and 4 and 6

B4: full-length, untagged PGL-3 (natural protein, C. elegans, UniProt G5EBV6 1-693, looked up)
chain: MEANKRQIVEVDGIKSYFFPHLAHYLASNDELLVNNIAQANKLAAFVLGATDKRPSNEEIAEMILPNDSSAYVLAAGMDVCLILGDDFRPKFDSGAEKLSQLGQAHDLAPIIDDEKKISMLARKTKLKKSNDAKILQVLLKVLGAEEAEEKFVELSELSSALDLDFDVYVLAKLLGFASEELQEEIEIIRDNVTDAFEACKPLLKKLMIEGPKIDSVDPFTQLLLTPQEESIEKAVSHIVARFEEASAVEDDESLVLKSQLGYQLIFLVVRSLADGKRDASRTIQSLMPSSVRAEVFPGLQRSVFKSAVFLASHIIQVFLGSMKSFEDWAFVGLAEDLESTWRRRAIAELLKKFRISVLEQCFSQPIPLLPQSELNNETVIENVNNALQFALWITEFYGSESEKKSLNQLQFLSPKSKNLLVDSFKKFAQGLDSKDHVNRIIESLEKSSSSEPSATAKQTTTSNGPTTVSTAAQVVTVEKMPFSRQTIPCEGTDLANVLNSAKIIGESVTVAAHDVIPEKLNAEKNDNTPSTASPVQFSSDGWDSPTKSVALPPKISTLEEEQEEDTTITKVSPQPQERTGTAWGSGDATPVPLATPVNEYKVSGFGAAPVASGFGQFASSNGTSGRGSYGGGRGGDRGGRGAYGGDRGRGGSGDGSRGYRGGDRGGRGSYGEGSRGYQGGRAGFFGGSRGGS
notes: PGL-3, C. elegans P granule protein, full length (D1, D2, internal IDR, C-terminal RGG region; residues to 693); also called PGL-3(FL); FL; not shown: 6xHis-MBP-6xHis, N-terminal, cleaved
binding result [8]: binds
